Patent US20090311271A1 (Pfizer, published 2009)

Experiments:
[1] = molecular target: T1, human LOX-1 expressed on the cell surface (human, UniProt P78380 1-273); assay: flow cytometry: CRP (0-200 ug/ml) on CHO/LOX-1 cells, 60 min at 4 C, rabbit anti-CRP and labelled secondary antibody, MFI
T1 construct: whole, on cells; also called CHO/LOX-1; CHO-LOX-1
Method: (§1) Cells were analyzed using a Becton Dickinson FACSCalibur® flow cytometer with CellQuest software (Becton Dickinson). Results are presented as the geometric mean fluorescence intensity (MFI).

[2] = molecular target: T1, human LOX-1 expressed on the cell …; assay: flow cytometry, CRP on CHO/LOX-1 cells, detected with rabbit anti-CRP antibody; FACS on CHO/LOX-1 cells, 4 C
Method: as §1

[3] = molecular target: T1, human LOX-1 expressed on the cell …; assay: flow cytometry, CRP on LOX/CHO cells
Method: as §1

[4] = molecular target: T2, recombinant mouse LOX-1 Fc protein (mouse, UniProt Q9EQ09 55-363, limits assumed); assay: AlphaScreen competition: antibody against Bio-oxLDL binding to mFc-mLOX1
T2 construct: The order Fc then LOX-1 is read from the label mFc-mLOX1; also called mFc-mLOX1; not shown: Fc part (label 'mFc')
T2 sequence (Q9EQ09 55-363 limits assumed): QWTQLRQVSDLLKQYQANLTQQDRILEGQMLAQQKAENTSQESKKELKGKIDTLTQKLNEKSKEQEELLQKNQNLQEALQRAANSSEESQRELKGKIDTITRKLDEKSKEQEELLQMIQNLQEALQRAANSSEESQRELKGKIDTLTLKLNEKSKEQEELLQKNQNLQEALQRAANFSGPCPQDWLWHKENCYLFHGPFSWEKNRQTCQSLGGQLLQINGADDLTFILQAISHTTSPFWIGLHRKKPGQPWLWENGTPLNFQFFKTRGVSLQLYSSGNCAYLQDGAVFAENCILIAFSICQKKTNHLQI

[5] = molecular target: T2, recombinant mouse LOX-1 Fc protein; assay: as above; remark: listed apart in the source
[6] = molecular target: T2, recombinant mouse LOX-1 Fc protein; assay: AlphaScreen competition: antibody against Bio-CRP binding to mFc-mLOX1; Bio-CRP + mFc-mLOX1 competition, not Bio-oxLDL
[7] = molecular target: T2, recombinant mouse LOX-1 Fc protein; assay: AlphaScreen competition: antibody against Bio-CRP binding to mFc-mLOX1

| Binder | Kd [1] [µg/mL] | Kd [2] [µg/mL] | Kd [3] [nM] | IC50 [4] [µg/mL] | IC50 [5] [µg/mL] | IC50 [6] [µg/mL] | IC50 [7] [µg/mL] |
| --- | --- | --- | --- | --- | --- | --- | --- |
| purified recombinant human CRP (ligand, UniProt P02741 19-224, looked up, biotin label in the AlphaScreen assays (biotin-CRP); unlabelled in ELISA and cell assays, Bought protein; also called C-reactive protein; biotin-CRP) QTDMSRKAFVFPKESDTSYVSLKAPLTKPLKAFTVCLHFYTELSSTRGYSIFSYATKRQDNEILIFWSKDIGYSFTVGGSEILFEVPEVTVAPVHICTSWESASGIVEFWVDGKPRVRKSLKKGYTVGAEASIILGQEQDSFGGNFEGSQSLVGDIGNVNMWDFVLSPDEINTIYLGGPFSPNVLNWRALKYEVQGEVFTKPQLWP | 86.6 | 86 | 747 | – | – | – | – |
| LOX1-11A2 (antibody, V domains shown, Rat anti-mouse LOX-1 monoclonal antibody; also called rat anti-mouse LOX-1 antibody 11A2) VH: EEQLVESGGGLVQPGGSLKLSCLASGFTLSNYGMNWIRQAPGKGLEWVASISSSSSYFYYADTVKGRFTISREDAKNTLNLQMTSLRSEDTALYYCARGITIAAGFTMDAWGQGTSVTVSS VL: DIQMTQSPTSLSASLGETVSIECRASEDIYNNLAWYQQKSGKSPQLLIYYASTLQDGVPSRFSGSGSGTQFSLKISGMQPEDEGLYYCLQGSKYPRTFGGGTKLELKR | – | – | – | 0.127 | 0.127 | – | – |
| LOX1-33F1 (antibody, V domains shown, Rat anti-mouse LOX-1 monoclonal antibody; also called rat anti-mouse LOX-1 antibody 33F1) VH: QVQLKESGPGLVQPSQTLSLTCTVSGFSLTSHAVNWVRQPPGKGLEWIGAIWSGGTTDYNSGFRSRLSISRDTSKSQVLLKMNSLQTEDTAMYFCARGYDGYYYYAMDVWGQGTSVTVSS VL: DIVMTQSPSSLAVSAGETVTINCKSSQSLLSSRNQKNYLAWYQQKPGQSPKLLIYLASTRESGVPDRFIGSGSGTDFTLTITSVQAEDLADYYCQQHYNYYTFGAGTKLELKR | – | – | – | 0.03 | 0.03 | 0.193 | 0.193 |
